In PMC5064212, “HigB of Pseudomonas aeruginosa Enhances Killing of Phagocytes by Up-Regulating the Type III Secretion System in Ciprofloxacin Induced Persister Cells”:

Biological target: HigA-His (Pseudomonas aeruginosa PA14, UniProt A0A0H2ZHN2 1-101)
Experiment: EMSA; 0, 4 or 20 nM HigA, 300 ng DNA, 5 mM Ca2+
Conditions: protein: recombinant; tags: His (6xHis with Gly-Gly linker at C-terminus per higA cloning primer S4); chain copies: 2; label: none (ethidium bromide stain); blunt

| Binder | binding result |
| --- | --- |
| 38-bp higB-higA promoter fragment (dsDNA) DNA 1: CTGTAGTGAAGTTAACGCTTAACGTTAAGGGTTAATGA DNA 2: TCATTAACCCTTAACGTTAAGCGTTAACTTCACTACAG | binds |
| 38-bp fragment with scrambled palindrome (EMSA-(M)) (dsDNA) DNA 1: CTGTAGTGAAGTCTAGACTTAAGCATATGGGTTAATGA DNA 2: TCATTAACCCATATGCTTAAGTCTAGACTTCACTACAG | no binding |
